The values that follow come from patent publication US20160264650A1 (Regeneron, published 2016).

Test [1] concerns the target T1, CBD-toxin A-Fc (Clostridium difficile, UniProt P16154 1848-2710).
T1 construct: also called CBD-A; C-term Toxin A
The test can be described thus: SPR Biacore, mAb captured, 100 nM CBD-A-Fc flowed. (SPR reads the build-up and loss of mass on a sensor chip optically.)

The target of test [2] is T1, CBD-toxin A-Fc. The test can be described thus: SPR Biacore, CBD-A-Fc captured, 500 nM mAb flowed.
The target in test [3] is T2, Clostridium difficile toxin A, soluble full-length (TechLab) (Clostridium difficile, UniProt P16154 1-2710). The test can be described thus: cell-based or functional assay.
Test [4] deals with T2, Clostridium difficile toxin A, soluble …. The test can be described thus: cell-based or functional assay. The source holds these as a separate data set.
Test [5] concerns the target T3, CBD-toxin B-Fc (Clostridium difficile, UniProt P18177 1851-2366).
T3 construct: also called CBD-B; C-term Toxin B
The test can be described thus: SPR Biacore, CBD-B-Fc captured, 500 nM mAb flowed.

Test [6] concerns the target T2, Clostridium difficile toxin A, soluble …. The test can be described thus: SPR Biacore T200, 37C, mAb capture.
The target of test [7] is T4, Clostridium difficile toxin B, soluble full-length (TechLab) (Clostridium difficile, UniProt P18177 2-2366).
T4 construct: also called tcdB
The test can be described thus: SPR Biacore T200, 37C, mAb capture.

Test [8] addresses T2, Clostridium difficile toxin A, soluble …. The test can be described thus: SPR Biacore T200, 37C, mAb capture. This is another data set of the same source.
The target in test [9] is T1, CBD-toxin A-Fc. The test can be described thus: SPR Biacore, mAb capture and CBD-Fc capture formats.
In test [10] the target is T3, CBD-toxin B-Fc. The description is as above.
For test [11], the target named is T5, C-term receptor Binding Domain (CBD) of toxin A (Clostridium difficile, UniProt P16154 1848-2710).
T5 construct: also called CBD-A; recombinant CBD of toxin A
The test can be described thus: SEC (Superose 6) of CBD and mAb mixture.

Like-named read-outs stand apart in the source and are kept apart here.

B1: H1H3330P (antibody, V domains shown)
VH: QVQLVESGGGVVQPGGSLRLSCAASGFTFSSYAMHWVRQAPGKGLEWVAIIWFDGSNEDYADSVKGRFTISRDNSKNMVYLQINSLRAEDTAVYYCARSANWNYEGGPLFDYWGQGTLVTVSS
VL: DIQMTQSPSSLSASVGDRVTITCRASQTISTFLNWYQQKPGKGPELLIYTASSLQSGVPSRFSGSGSGTDFALTISSLQPEDFATYYCQQNYNDPPTFGQGTRLEIKR
For the molecule B1, the “binding (RU)” value in test [1] amounted to 441 RU. Also, the “binding (RU)” value in [2] turned out to be 515 RU. In test [3], the “IC50, Vero cell viability (neutralization), Trial 3, 32 pM Toxin A” value was 7 pM and the “IC50, Vero cell viability (neutralization), Trial 5, 25 pM Toxin A” value is 7 pM. For the same molecule, the “neutralization potency relative to control I” value in test [4] is around 20 fold. Moreover, in [5], the “binding (RU)” value was -4 RU. For the same molecule, in test [6], the Kd (commonly the concentration at which binding is half-saturated) was found to be 0.547 nM; the “T½” value came to 1.42 h; the koff (usually the rate constant with which the complex falls apart) was 0.000137 s⁻¹; the kon – broadly, the second-order rate constant of association – amounted to 250000 M⁻¹ s⁻¹.

B2: H2M3123N (antibody, V domains shown)
VH: DVQLVESGGDFVQPGGSLRLSCAASGVAFNDYEMNWIRQAPGKRLEWISHIDSSGTIIYYADSVKGRFTISRDSAKNSLFLQMDSLRAEDTAVYYCARERYSHYGYYYFGMDVWGQGTTVTVSS
VL: DIQMTQSPSTLSASVGDRVTITCRASQNIDNWLAWYQQKTGKAPNLLIYKASTLESGVPSRFSGSGSGTEFTLTIISLQPDDFATYYCQEYNTYSRTFGQGTKVEIK
notes: also called H2aM3123N; H1M3123N
For the molecule B2, the “binding (RU)” value in test [1] turned out to be 1 RU. Further, the “binding (RU)” value in test [2] turned out to be 23 RU. For the same molecule, in [3], the “IC50, Vero cell viability (neutralization), Trial 1, 32 pM Toxin A” value is 65 pM and the “IC50, Vero cell viability (neutralization), Trial 2, 32 pM Toxin A” value came to 24 pM. For the same molecule, in test [7], the affinity, expressed as Kd, was 1.65 nM; the “T½” value stood at 2.93 h; the off-rate (koff) is 6.54e-05 s⁻¹; the kon stood at 39700 M⁻¹ s⁻¹. In [8], the Kd is 0.481 nM, the “T½” value amounted to 0.317 h, the koff worked out at 0.000593 s⁻¹ and the kon worked out at 1.23e+06 M⁻¹ s⁻¹. The binding result in test [9] is given as “no binding”. The binding result in test [10] is reported as “no binding”. Also, the binding result in [11] is “no binding (tested: CBD at ~500 nM, CBD:Mab 1:5 and 1:20)”.
